According to patent publication US20230151068A1:

Legend:
[1] = target: biotinylated His-Avi-TEAD (194-411) (UniProt P28347); assay: SPR (Biacore T100, 25 C), captured biotinylated TEAD, peptide as analyte, single cycle kinetics
[2] = target: biotinylated His-Avi-TEAD (194-411) (UniProt P28347); assay: SPR, single cycle kinetics, biotinylated TEAD captured on the chip, peptide injected at 0.044, 0.133, 0.4, 1.2, 3.6 nM
[3] = target: biotinylated His-Avi-TEAD (194-411) (UniProt P28347); assay: SPR (Biacore T100, 25 C), captured biotinylated TEAD, peptide as analyte, steady-state
[4] = target: biotinylated His-Avi-TEAD (194-411) (UniProt P28347); assay: SPR, steady-state response against peptide concentration (M, log axis) with fitted curve
[5] = target: biotinylated His-Avi-TEAD (194-411) (UniProt P28347); assay: SPR (Biacore T100, 25 C), captured biotinylated TEAD, peptide as analyte, kinetics 1:1 binding
[6] = target: biotinylated His-Avi-TEAD (194-411) (UniProt P28347); assay: SSM screen, enrichment after two rounds of sorting

| Binder | enrichment score [6] | also measured |
| --- | --- | --- |
| GSPDEYIERAKECCKKQDIQCCLRIFDESGDPNVMLICLFCW (designed binder) [peptide of SEQ ID NO: 10] | – | Kd [1]: 0.372 nM; koff [1]: 0.00767 s⁻¹; kon [1]: 2.06e+07 M⁻¹ s⁻¹; Kd [2]: 0.372 nM |
| GSPDEYIERARRCCRRGDIQCCLRYFEESGDPNVMLICLFCP (designed binder) [peptide of SEQ ID NO: 8] | – | Kd [3]: 39 nM; EC50 (read off the curve) [4]: 40 nM |
| GSPDEYIERAKECCKKQDIQCCLRIFDESKDPNVMLICLFCP (designed binder) [peptide of SEQ ID NO: 11] | – | Kd [3]: 6.3 nM; koff [5]: 0.117 s⁻¹; kon [5]: 3.1e+07 M⁻¹ s⁻¹; EC50 (read off the curve) [4]: 6 nM |
| GSPDEDIERAKECCKKGDIQCCLRYFEESGDPNVMLICLFCP (designed binder) [Y04D variant of SEQ ID NO: 1] | -1.79 | – |
| GSPDEYDERAKECCKKGDIQCCLRYFEESGDPNVMLICLFCP (designed binder) [I05D variant of SEQ ID NO: 1] | -3.47 | – |
| GSPDEYIDRAKECCKKGDIQCCLRYFEESGDPNVMLICLFCP (designed binder) [E06D variant of SEQ ID NO: 1] | -0.6 | – |
| GSPDEYIEDAKECCKKGDIQCCLRYFEESGDPNVMLICLFCP (designed binder) [R07D variant of SEQ ID NO: 1] | -2.25 | – |
| GSPDEYIERDKECCKKGDIQCCLRYFEESGDPNVMLICLFCP (designed binder) [A08D variant of SEQ ID NO: 1] | -4.17 | – |
| GSPDEYIERADECCKKGDIQCCLRYFEESGDPNVMLICLFCP (designed binder) [K09D variant of SEQ ID NO: 1] | -0.58 | – |
| GSPDEYIERAKDCCKKGDIQCCLRYFEESGDPNVMLICLFCP (designed binder) [E10D variant of SEQ ID NO: 1] | -0.89 | – |
| GSEDEYIERAKECCKKGDIQCCLRYFEESGDPNVMLICLFCP (designed binder) [P01E variant of SEQ ID NO: 1] | 1.12 | – |
| GSPEEYIERAKECCKKGDIQCCLRYFEESGDPNVMLICLFCP (designed binder) [D02E variant of SEQ ID NO: 1] | 1.16 | – |
| GSPDEEIERAKECCKKGDIQCCLRYFEESGDPNVMLICLFCP (designed binder) [Y04E variant of SEQ ID NO: 1] | -6.52 | – |
| GSPDEYEERAKECCKKGDIQCCLRYFEESGDPNVMLICLFCP (designed binder) [I05E variant of SEQ ID NO: 1] | -1.23 | – |
| GSPDEYIEEAKECCKKGDIQCCLRYFEESGDPNVMLICLFCP (designed binder) [R07E variant of SEQ ID NO: 1] | -0.16 | – |
| GSPDEYIEREKECCKKGDIQCCLRYFEESGDPNVMLICLFCP (designed binder) [A08E variant of SEQ ID NO: 1] | -2.66 | – |

| Binder | enrichment score [6] | also measured |
| --- | --- | --- |
| GSPDEYIERAEECCKKGDIQCCLRYFEESGDPNVMLICLFCP (designed binder) [K09E variant of SEQ ID NO: 1] | 3.95 | – |
| GSHDEYIERAKECCKKGDIQCCLRYFEESGDPNVMLICLFCP (designed binder) [P01H variant of SEQ ID NO: 1] | -0.88 | – |
| GSPHEYIERAKECCKKGDIQCCLRYFEESGDPNVMLICLFCP (designed binder) [D02H variant of SEQ ID NO: 1] | -1.05 | – |
| GSPDHYIERAKECCKKGDIQCCLRYFEESGDPNVMLICLFCP (designed binder) [E03H variant of SEQ ID NO: 1] | -0.31 | – |
| GSPDEHIERAKECCKKGDIQCCLRYFEESGDPNVMLICLFCP (designed binder) [Y04H variant of SEQ ID NO: 1] | -1.9 | – |
| GSPDEYHERAKECCKKGDIQCCLRYFEESGDPNVMLICLFCP (designed binder) [I05H variant of SEQ ID NO: 1] | -2.99 | – |
| GSPDEYIHRAKECCKKGDIQCCLRYFEESGDPNVMLICLFCP (designed binder) [E06H variant of SEQ ID NO: 1] | -1.57 | – |
| GSPDEYIEHAKECCKKGDIQCCLRYFEESGDPNVMLICLFCP (designed binder) [R07H variant of SEQ ID NO: 1] | -0.32 | – |
| GSPDEYIERHKECCKKGDIQCCLRYFEESGDPNVMLICLFCP (designed binder) [A08H variant of SEQ ID NO: 1] | -7.27 | – |
| GSPDEYIERAHECCKKGDIQCCLRYFEESGDPNVMLICLFCP (designed binder) [K09H variant of SEQ ID NO: 1] | -1.5 | – |
| GSPDEYIERAKHCCKKGDIQCCLRYFEESGDPNVMLICLFCP (designed binder) [E10H variant of SEQ ID NO: 1] | -1.97 | – |
| GSKDEYIERAKECCKKGDIQCCLRYFEESGDPNVMLICLFCP (designed binder) [P01K variant of SEQ ID NO: 1] | -0.29 | – |
| GSPKEYIERAKECCKKGDIQCCLRYFEESGDPNVMLICLFCP (designed binder) [D02K variant of SEQ ID NO: 1] | -1.07 | – |
| GSPDKYIERAKECCKKGDIQCCLRYFEESGDPNVMLICLFCP (designed binder) [E03K variant of SEQ ID NO: 1] | -0.5 | – |
| GSPDEKIERAKECCKKGDIQCCLRYFEESGDPNVMLICLFCP (designed binder) [Y04K variant of SEQ ID NO: 1] | -1.58 | – |
